These results are taken from article PMC3972757.

In assay [1] the target is catalytic domain of AMSH, AMSH 219-424 E280A (human) (UniProt O95630). The assay is described as follows: AUC.
Assay [2] shares this target. The assay is described as follows: ITC.
The target in another assay is ubiquitin (Homo sapiens) (UniProt P0CG48). The assay is described as follows: biosensor. As to conditions: cited from earlier work.

Chain of catalytic domain of AMSH, AMSH 219-424 E280A (human) (O95630 219-424 E280A): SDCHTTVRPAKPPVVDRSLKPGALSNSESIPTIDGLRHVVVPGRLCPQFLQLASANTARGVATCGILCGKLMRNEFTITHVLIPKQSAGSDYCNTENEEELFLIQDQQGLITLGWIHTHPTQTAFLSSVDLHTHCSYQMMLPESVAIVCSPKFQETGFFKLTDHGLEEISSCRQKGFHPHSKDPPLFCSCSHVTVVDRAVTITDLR
Chain of STAM UIM (Q92783 168-193): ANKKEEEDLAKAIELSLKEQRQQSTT

By stoichiometry N is commonly meant the number of molecules, sites or subunits per partner or assembly. In general, Kd refers to a measure of binding affinity in units of concentration. “SH3 domain of STAM2 (from UniProt O75886 202-261) (domain or fragment)” displayed a stoichiometry N in assay [1] of 1. Besides, in assay [2], the Kd worked out at 1.4 µM and the dH is -15.1 kcal/mol.

In the case of STAM UIM (from UniProt Q92783), in the assay with ubiquitin (Homo sapiens), the Kd is 182 µM.
